Literature values in article PMC4610412.

Molecular target: pCdc25C (Homo sapiens) (UniProt P30307)
Assay: ITC

Sequence of pCdc25C (Homo sapiens) (P30307 2-473): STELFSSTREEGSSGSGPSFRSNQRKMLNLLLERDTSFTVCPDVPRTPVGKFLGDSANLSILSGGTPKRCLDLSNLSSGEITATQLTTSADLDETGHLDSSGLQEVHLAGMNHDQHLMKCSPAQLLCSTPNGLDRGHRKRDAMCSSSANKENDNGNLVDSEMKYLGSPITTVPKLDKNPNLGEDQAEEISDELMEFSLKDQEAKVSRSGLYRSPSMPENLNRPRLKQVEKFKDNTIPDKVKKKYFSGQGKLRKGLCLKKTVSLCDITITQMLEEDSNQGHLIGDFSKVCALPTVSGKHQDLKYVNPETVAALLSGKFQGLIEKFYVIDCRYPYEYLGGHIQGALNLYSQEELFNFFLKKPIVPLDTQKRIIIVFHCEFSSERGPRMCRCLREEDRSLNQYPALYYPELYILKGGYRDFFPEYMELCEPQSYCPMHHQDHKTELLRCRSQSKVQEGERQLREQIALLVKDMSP
Sequence of Pin1 WW (Q13526 2-42): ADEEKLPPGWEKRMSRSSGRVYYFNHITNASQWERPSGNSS
Sequence of Pin1 PPIase (Q13526 52-163): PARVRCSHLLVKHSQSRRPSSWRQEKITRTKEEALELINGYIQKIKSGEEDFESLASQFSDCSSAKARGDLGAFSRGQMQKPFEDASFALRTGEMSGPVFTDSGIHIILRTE

Row | Kd [µM] | Substance
1 | 1000 | Pin1 PPIase (from UniProt Q13526)
2 | 13 | Pin1 WW (from UniProt Q13526)
